Publication doi:10.1101/728246 (bioRxiv, 2019)

B1: Mycobacterium tuberculosis Mfd (transcription-repair coupling factor) (natural protein)
chain: MTAPGPACSDTPIAGLVELALSAPTFQQLMQRAGGRPDELTLIAPASARLLVASALARQGPLLVVTATGREADDLAAELRGVFGDAVALLPSWETLPHERLSPGVDTVGTRLMALRRLAHPDDAQLGPPLGVVVTSVRSLLQPMTPQLGMMEPLTLTVGDESPFDGVVARLVELAYTRVDMVGRRGEFAVRGGILDIFAPTAEHPVRVEFWGDEITEMRMFSVADQRSIPEIDIHTLVAFACRELLLSEDVRARAAQLAARHPAAESTVTGSASDMLAKLAEGIAVDGMEAVLPVLWSDGHALLTDQLPDGTPVLVCDPEKVRTRAADLIRTGREFLEASWSVAALGTAENQAPVDVEQLGGSGFVELDQVRAAAARTGHPWWTLSQLSDESAIELDVRAAPSARGHQRDIDEIFAMLRAHIATGGYAALVAPGTGTAHRVVERLSESDTPAGMLDPGQAPKPGVVGVLQGPLRDGVIIPGANLVVITETDLTGSRVSAAEGKRLAAKRRNIVDPLALTAGDLVVHDQHGIGRFVEMVERTVGGARREYLVLEYASAKRGGGAKNTDKLYVPMDSLDQLSRYVGGQAPALSRLGGSDWANTKTKARRAVREIAGELVSLYAKRQASPGHAFSPDTPWQAELEDAFGFTETVDQLTAIEEVKADMEKPIPMDRVICGDVGYGKTEIAVRAAFKAVQDGKQVAVLVPTTLLADQHLQTFGERMSGFPVTIKGLSRFTDAAESRAVIDGLADGSVDIVIGTHRLLQTGVRWKDLGLVVVDEEQRFGVEHKEHIKSLRTHVDVLTMSATPIPRTLEMSLAGIREMSTILTPPEERYPVLTYVGPHDDKQIAAALRRELLRDGQAFYVHNRVSSIDAAAARVRELVPEARVVVAHGQMPEDLLETTVQRFWNREHDILVCTTIVETGLDISNANTLIVERADTFGLSQLHQLRGRVGRSRERGYAYFLYPPQVPLTETAYDRLATIAQNNELGAGMAVALKDLEIRGAGNVLGIEQSGHVAGVGFDLYVRLVGEALETYRDAYRAAADGQTVRTAEEPKDVRIDLPVDAHLPPDYIASDRLRLEGYRRLAAASSDREVAAVVDELTDRYGALPEPARRLAAVARLRLLCRGSGITDVTAASAATVRLSPLTLPDSAQVRLKRMYPGAHYRATTATVQVPIPRAGGLGAPRIRDVELVQMVADLITALAGKPRQHIGITNPSPPGEDGRGRNTTIKERQP
B2: Mycobacterium smegmatis Mfd (natural protein)
chain: MTAPGHTSVQTPIAGLVELALSDPSLQDVIRRAADRPADLALVGPASARVLVAAALAQNGPLLVVAATGREADELTAELRGVFGDSVALFPSWETLPHERLSPGVETVGARLMLLRRLARPDDETLGAPLRVVVTTTRSLLQPMAPDLVDIEPVTLSVGAEMEFEDVVARLVDLSYTRVDMVGKRGEFAVRGGILDVFPPTAEHPVRVEFWGDEISEMRAFAIADQRSIPEVPVQTVVAVPCRELLMTDDVRERAAALAAEHPTTENTVPGTVPDMLAKLAEGIPVDGMEALLPLLHPIEPTTLTRHLPEGAPVLVCDPEKVRTRAADLIKTGREFLEASWSTAAVGGDAPIDLEALGASGFVTFEEAREAAREGGHPWWTLSQLSDESAVELDIRSAPSARGSQHNLEEIFAMLRAHVATGGYAAVVTPGIGTAHRVVEQLGEADTAATILEPGTAPKAGVVGVLKGPLCSGVVLPGANLVIITETDLTGNRVTANEGRKLAAKRRNVVDPLALTAGDLVVHDQHGIGKFVEMTERVVGGARREYLVLEYASSKRGGGTDKLYVPMDSLDQLSRYVGGEAPSLSRLGGSDWANTKTKARRAVREIASELVALYAKRQSAPGHAFGPDTPWQAEMEDAFGFTETIDQLTAIQEVKSDMEKPVPMDRVICGDVGYGKTEIAVRAAFKAVQDGKQVAVLVPTTLLADQHLQTFTNRMAGFPVTVKGLSRFTDPAESRAVIEGLKDGSVDVVIGTHRLLQTGVTWKDLGLIIVDEEQRFGVEHKEHIKSMRTHVDVLTMSATPIPRTLEMSLAGIREMSTILTPPEERYPVLTYVGPHDDKQVAAALRRELLRDGQAFYIHNRVRTIDEAAARVRQLVPEARVVVAHGQMNEETLEKTVEGFWNREYDILVCTTIVETGLDISNANTLIVERADTFGLSQLHQLRGRVGRSRERGYAYFLYPPNKPLTETAYDRLATIAQNNELGAGMAVAMKDLEIRGAGNVLGAEQSGHVAGVGFDLYVRLVGEAVEAYRAAADGKTVATPQEQKDVRIDLPVDAHLPPEYIGSDRLRLEAYRRLAAAADDDAVASVVDELIDRYGPLPEPAQRLVAVARLRLLCREFGITEIGAVSASTVRLSPMVLPDSAQLRLKRMYPGGHYRATTSTVQVPLPRAGEGVGAPRIRDLELVQWVAGLVLVLNGKGQGDVDMSKFSNPAGEAKR

Columns and labels:
[1] = target: the molecule itself; experiment: negative-stain EM single-particle reconstruction
SEC = target: the molecule itself; experiment: SEC

Protein	stoichiometry N [1]	stoichiometry N (SEC)
B1	12	6
B2	–	6
